Test results as given in patent publication US12673985B2, “Method for the treatment or prophylaxis of cancer by targeting the extracellular portion of keratin 14 (KRT14) residing on cancer cells” (Hudson Institute of Medical Research, priority 2019, dated 2026).
Entries after “also recorded” stand apart in the source; their conditions may differ.

What was measured:
[1] = target: T1, KRT14 (Homo sapiens, UniProt P02533); assay: Immunohistochemical staining of FFPE tumour tissue sections; conditions: 2 μg/ml-0.25 μg/ml, overnight incubation
T1 sequence (P02533 1-472): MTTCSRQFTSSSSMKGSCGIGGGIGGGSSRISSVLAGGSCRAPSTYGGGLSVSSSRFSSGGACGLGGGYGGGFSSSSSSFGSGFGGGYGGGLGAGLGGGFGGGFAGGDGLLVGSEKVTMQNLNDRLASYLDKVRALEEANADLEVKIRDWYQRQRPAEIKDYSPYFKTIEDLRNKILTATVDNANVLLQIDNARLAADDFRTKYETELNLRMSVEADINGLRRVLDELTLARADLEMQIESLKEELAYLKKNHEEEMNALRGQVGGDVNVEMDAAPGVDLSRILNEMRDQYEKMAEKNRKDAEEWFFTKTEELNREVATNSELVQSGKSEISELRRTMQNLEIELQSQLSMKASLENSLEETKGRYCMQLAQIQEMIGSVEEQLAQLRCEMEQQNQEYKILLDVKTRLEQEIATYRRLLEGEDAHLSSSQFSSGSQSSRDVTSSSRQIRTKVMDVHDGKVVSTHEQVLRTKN
Experimental: Human Tissue Arrays and Immunohistochemistry. Immunohistochemistry was performed on tissue micrarray (TMA) sections purchased from USBIOMAX (#ov2085, #ov20811) or generated in house (tumour and fallopian tube) as previously described [Bilandzic et al. (2014) Cancer Lett 354(1):107-114; Rainczuk et al. (2013) J Proteome Res; Salamonsen et al. (2013) Fertil Steril 99(4):1086-92](Supplementary Data 6 and 7). For antigen retrieval, sections were incubated for 10 minutes in 50 mM glycine (pH 3.5) at 90° C. Sections were incubated overnight at 4° C. with Rb-KRT14 antibody (1:100, Sigma, SAB4501657) and mAb AN-17 (1:500) in 0.1% w/v BSA/PBS. Subsequent steps were performed at room temperature, with PBS washes between incubations. […] Antibody binding was detected as a brown precipitate after development with 3,3′-diaminobenzidine tetrahydrochloride, and Harris hematoxylin was used as counterstain. […] Positive immunostaining was assessed relative to parallel sections exposed to an isotype (IgG) control. Immunostaining in tumor and stromal tissue was assessed using Aperio ImageScope (v 12.3.3) as described (Rainczuk et al. (2013) supra). […]

[2] = test system: OVCAR4 ovarian cancer cells; assay: Real time cell analysis (RTCA) of proliferation with cisplatin and mAb AN-17; assay type: cell-based, human
Experimental: Real time cell analysis (RTCA) was conducted as previously described (PMID: 31443478; Bilandzic et al., Cancers (Basel). 2019; 11(9), E1228) using an xCELLigence RTCA SP 96-well instrument (ACEA Biosciences). Cell lines were synchronized in G0 by overnight incubation in serum-free media and were seeded at 0.5×10^3 cells/0.15 ml/per well. […] Impedance readings were taken every 15 minutes for the experimental duration. mAb AN-17 comprises the heavy chain variable region of SEQ ID NO:3 and the light chain variable region of SEQ ID NO:5, encoded by the nucleic acid sequences of SEQ ID NOs:2 and 4, respectively (see also FIGS. 21 and 22A-22B).

[3] = test system: SJ-GBM2 primary glioblastoma multiforme; assay: In vitro wound repair assay; assay type: cell-based; conditions: mAb 1 μg/ml; 16 hrs
Experimental: In vitro wound repair assays were conducted on the following cancer cell lines: BT16 atypical teratoid rhabdoid (brain) carcinoma, NCI-H1573 lung adenocarcinoma, SJ-GBM2 primary glioblastoma multiforme, AN3CA endometrial carcinoma, SW620 colorectal carcinoma and MDA-MB-468 breast carcinoma. Cells were grown in complete medium to confluency in a 12-well plate, and subsequently serum-starved overnight to synchronize at G0. The following day, cell culture medium was removed and the cell monolayers were wounded by scraping with a pipette tip attached to suction. Non-adherent cells were removed by gentle washes with phosphate buffered saline (PBS) and complete growth medium was added to each well, in either the absence or presence of mAb AN-17 (at 1 μg/ml). The wound area was imaged every hour for 0-24 hours. Wound closure was measured in image series using AnalySIS LS Research Software (Olympus) to determine the area of the wound on each day. Experiments were repeated in triplicate with at least six wound areas observed per growth condition.

[4] = test system: 9,184 individual recombinant human proteins; assay: ProtoArray Human Protein Microarrays v5.0 cross-reactivity profiling; assay type: binding; conditions: mAb diluted 1:500
Experimental: Proteomic profiling of mAb AN-17 antibody reactivity was performed using Invitrogen™ ProtoArray™ Human Protein Microarrays v5.0 (ThermoFisher Scientific, Waltham MA), comprising 9,184 individual recombinant human proteins spotted in duplicate. All procedures were carried out as previously described (PMID: 29141850; Wilson et al. Cancer Epidemiol Biomarkers Prev. 2018; 27(2):183-192). Arrays were probed using mAb AN-17 diluted 1:500 in wash buffer. Fluorescent detection antibody against IgG heavy and light chains was from Abcam (#ab150119 Goat Anti-Mouse IgG H&L Alexa Fluor® 647, preadsorbed) diluted to […] in wash buffer prior to use. A single array incubated with detection antibody alone was used as a control for non-specific antibody binding.
Array imaging was performed using a Fuji FLA5100 multi wavelength scanner as described (PMID: 29141850; Wilson et al. Cancer Epidemiol Biomarkers Prev. 2018; 27(2):183-192), using a 635 nm excitation laser and dual band pass Cy3/Cy5 filter. Images were acquired at […], with PMT set at 1000V. Array alignment, feature extraction and data normalization were performed as previously described (PMID: 29141850; Wilson et al. Cancer Epidemiol Biomarkers Prev. 2018; 27(2):183-192). Array co-ordinates were obtained from the manufacturer-provided downloadable .GAL files (ThermoFisher Scientific).

B1: mAb AN-17: monoclonal anti-KRT14 antibody; heavy chain variable region SEQ ID NO:3, light chain variable region SEQ ID NO:5 (clone AN-17A RG4.E5b.A7.B4) (antibody, listed as Mus musculus, V domains shown)
VH: QVQLKESGPGLVAPSQSLSITCTVSGFSLSRYSVHWVRQPPGKGLEWLGMIWGGGSTDYNSALKSRLSISKDNSKSQVFLKMNSLQTDDTAMYYCARKDYGYSYFDYWGQGTTLTVSS
VL: DVLMTQTPLSLPVSLGDQASISCRSSQSIVHSNGNTYLEWYLQKPGQSPKLLIYKVSNRFSGVPDRFSGSGSGTDFTLKISRVEAEDLGVYYCFQGSHVPFTFGSGTKLEIKRADAAPTVS
staining localization in tumour tissue [1]: Staining was restricted to tumour epithelium | staining localization in tumour tissue ([1]; listed as mAb A-17): staining observed specifically in the tumour epithelium | enhancement of the toxicity of cisplatin ([2]; cisplatin at sub-lethal doses): significantly enhanced the toxicity of cisplatin | increase in sensitivity of cells to standard platinum chemotherapy ([2]; in vitro): at least 10 fold | cell viability or proliferation ([2]; mAb AN-17 alone (1 ug/ml)): had no effect on cell viability or proliferation | wound closure / migration, SJ-GBM2 [3]: failed to close the wound; also recorded: impaired | cross-reactivity with protein antigens on arrays [4]: did not react with any of the proteins present on the arrays tested; also recorded: No cross-reactivity was evident | cross-reactivity with protein antigens on arrays ([4]; listed as mAB AN-17): did not react with any of the antigens present on the array, including several related keratin proteins
